Reference: the supplement of paper PMC11908140

B1: library; numbered along this chain (parent)
chain: MRKPRAAVGSGHRKQAASQEGRQKHAKNNSQAKPSACDGLARQPEEVVLQASVSSYHLFRDVAEVTAFRGSLLSWYDQEKRDLPWRRRAEDEMDLDRRAYAVWVSEVMLQQTQVATVINYYTGWMQKWPTLQDLASASLEEVNQLWAGLGYYSRGRRLQEGARKVVEELGGHMPRTAETLQQLLPGVGRYTAGAIASIAFGQATGVVDGNVARVLCRVRAIGADPSSTLVSQQLWGLAQQLVDPARPGDFNQAAMELGATVCTPQRPLCSQCPVESLCRARQRVEQEQLLASGSLSGSPDVEECAPNTGQCHLCLPPSEPWDQTLGVVNFPRKASRKPPREESSATCVLEQPGALGAQILLVQRPNSGLLAGLWEFPSVTWEPSEQLQRKALLQELQRWAGPLPATHLRHLGEVVHTFSHIKLTYQVYGLALEGQTPVTTVPPGARWLTQEEFHTAAVSTAMKKVFRVYQGQQPGTCMGSKRSQVSSPCSRKKPRMGQQVLDNFFRSHISTDAHSLNSAAQ

Variants of: B1
Test: 8OG:A repair function score (normalized; synonymous = 0, nonsense = -1) (normalized log-likelihood score); higher = more repair activity (WT-like)
Conditions: with 8OG:A DNA repair reporter (GFP) in HEK-293 MUTYH KO cells
Summary of the method: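 Lentiviral MUTYH cDNA NNN codon-scan libraries were expressed in MUTYH knockout HEK-293 cells with 10 pg/ml doxycycline, and the cells received an 8OG:A GFP repair reporter together with mCherry. At 72 h, viable mCherry+ cells went into GFP+ (repair) or GFP− bins, three replicates per tile, before tile amplicons were sequenced. A repair function score was then built from per-tile Rosace fitness scores, anchored on the synonymous and nonsense distributions. Synonymous medians sat at 0 and nonsense at -1, and variants under 300 counts per million at the start were left out.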
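Note: cells sorted at 72 h after reporter transfection.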

8OG:A repair function score: each site, then its substitutions
V207: Q -0.868; L -0.375; P -1.01; A -0.78; G -1.03; Y -0.858; R -0.947; I -0.363; N -0.883; E -1.03; K -0.909; H -0.941; T -0.785; D -0.986; W -0.834; S -0.875; C -0.542; F -0.875; M -0.495
D208: K -0.994; A -1.04; E -0.991; P -1.04; N -0.984; C -1.02; L -1.03; I -1.02; Q -1.01; F -1.04; R -1.03; G -1; V -0.996; T -1.03; S -0.987; Y -1.01; W -1.02; M -0.974; H -1.01
G209: D -0.851; T -0.207; W -0.876; K -0.788; F -0.839; C 0.162; S 0.0281; Y -0.757; A -0.0943; P -0.887; L -0.534; E -0.837; Q -0.48; I -0.359; H -0.659; N 0.0546; R -0.364; V -0.00522
V211: I -0.0557; L -0.586; C -0.265; M -0.251; R -1.02; K -1; S -0.531; N -0.806; G -0.791; E -0.951; P -1.02; T -0.428; A -0.477; Q -0.837; H -0.617; D -0.988; F -0.4; W -0.594; Y -0.329
A212: P -0.961; M -0.344; T -0.0386; L -0.264; E 0.196; F -0.426; H -0.341; N -0.24; I -0.333; Q -0.0874; D -0.814; C -0.00168; S -0.131; R 0.0203; G -0.254; K -0.0378
V206: W -1.03; S -0.585; Q -0.927; D -1.02; H -1.02; A -0.219; G -0.835; M -0.563; L -0.338; C -0.0127; I -0.0438; R -1.01; P -0.905; F -0.894; Y -1.01; T -0.338; E -1.01; K -1.01; N -0.923
T204: N -0.117; L -0.0721; C 0.0932; A -0.0766; I 0.0296; H -0.234; M -0.111; W -0.109; K 0.0186; Y -0.127; F -0.0751; E 0.00943; S -0.127; R -0.0298; D -0.103; V 0.0534; Q -0.045; G -0.452; P -0.903
N210: R -1.03; D -1.03; P -0.658; Q -0.95; S -1.03; T -1.03; F -1; Y -1; V -0.927; C -0.854; H -0.833; G -0.962; I -1; A -0.876; W -1.01; E -0.997; M -0.923; K -1.04; L -0.937
G205: P 0.0348; F -0.891; D -0.933; Q -0.764; H -0.8; I -0.994; R -0.953; T -0.773; M -0.711; Y -0.873; N -0.947; K -0.961; A -0.145; L -1.03; V -0.876; W -0.894; C -0.378; E -0.592; S -0.352
